According to patent publication CN116265487A (SANYOU BIO INC, dated 2023):
Where “and” joins values, the source holds several entries; their conditions need not be identical. Identical values can stand only once.

B1: 全人源抗体78A74-7 (antibody, human IgG1, kappa, V domains shown)
VH: QVQLVESGGGLVKPGGSLRLSCAASGFTFSSYSMNWVRQAPGKGLEWVAVISYDGSNKYYADSVKGRFTISRDNSKNTLYLQMNSLRAEDTAVYYCAKATLDGYTAGYYYGMDVWGQGTTVTVSS
VL: EIVLTQSPATLSLSPGERATLSCRASQSVSSYLAWYQQKPGQAPRLLIYDASNRATGIPARFSGSGSGTDFTLTISSLEPEDFAVYYCQLMSNWPPEWTFGQGTKVEIKR
notes: Fully human anti-ANG2 antibody in IgG1 format
B2: 全人源抗体17 (antibody, human IgG1, kappa, V domains shown)
VH: EVQLVESGGGVVKPGGSLRLSCAASGFTFNKYTINWVRQTPGKGLELVADISSGGDYVNYADSVKGRFTISRDNAKDSVYLLMNGLRAEDTAVYYCARDALTYSNNWLDSWGQGTLVTVSS
VL: DIQLTQSPSFLSASVGDRVTITCRASQGISSYLAWYQQKPGKAPKLLIYAASTLQSGVPSRFSGGGYGTDFTLTISSLQPEDFATYYCQQFESYPLTFGGGTRLEIKR
notes: as for B1

Experiments:
重组蛋白hANG2-His = biological target: T1, 重组蛋白hANG2-His (human, UniProt O15123 19-496); assay: ELISA, hANG2-His coated, anti-human-IgG-Fc-HRP detection
T1 construct: Made in Expi293 cells; not shown: C-terminal His tag
T1 sequence: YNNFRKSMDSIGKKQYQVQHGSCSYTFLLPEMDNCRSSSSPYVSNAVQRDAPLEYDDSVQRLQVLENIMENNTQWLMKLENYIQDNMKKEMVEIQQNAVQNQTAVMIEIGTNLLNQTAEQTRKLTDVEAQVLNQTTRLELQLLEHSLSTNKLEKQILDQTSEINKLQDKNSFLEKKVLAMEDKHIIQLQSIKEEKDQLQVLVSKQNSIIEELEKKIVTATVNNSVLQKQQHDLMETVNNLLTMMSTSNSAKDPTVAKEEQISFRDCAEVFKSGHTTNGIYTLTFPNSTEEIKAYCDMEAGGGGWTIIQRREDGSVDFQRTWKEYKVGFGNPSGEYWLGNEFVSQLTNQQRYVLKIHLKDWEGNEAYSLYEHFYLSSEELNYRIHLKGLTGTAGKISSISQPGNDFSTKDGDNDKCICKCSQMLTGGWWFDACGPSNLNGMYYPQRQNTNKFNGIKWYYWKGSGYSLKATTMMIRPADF

hANG1-Fc = hANG1-Fc (human, UniProt Q15389 16-498, limits assumed); assay: ELISA, 2μg/mL hANG1-Fc coated, anti-human Kappa HRP detection
生物素标记的hANG2-Fc蛋白 = biological target: T2, 生物素标记的hANG2-Fc蛋白 (human, biotin-labelled (sites not given)); assay: FACS blocking of biotin-hANG2-Fc binding to huTie2-HEK293 cells
T2 construct: also called biotin-hANG2-Fc

Sequence of hANG1-Fc (Q15389 other isoform, or with tags, fused parts or gaps limits assumed): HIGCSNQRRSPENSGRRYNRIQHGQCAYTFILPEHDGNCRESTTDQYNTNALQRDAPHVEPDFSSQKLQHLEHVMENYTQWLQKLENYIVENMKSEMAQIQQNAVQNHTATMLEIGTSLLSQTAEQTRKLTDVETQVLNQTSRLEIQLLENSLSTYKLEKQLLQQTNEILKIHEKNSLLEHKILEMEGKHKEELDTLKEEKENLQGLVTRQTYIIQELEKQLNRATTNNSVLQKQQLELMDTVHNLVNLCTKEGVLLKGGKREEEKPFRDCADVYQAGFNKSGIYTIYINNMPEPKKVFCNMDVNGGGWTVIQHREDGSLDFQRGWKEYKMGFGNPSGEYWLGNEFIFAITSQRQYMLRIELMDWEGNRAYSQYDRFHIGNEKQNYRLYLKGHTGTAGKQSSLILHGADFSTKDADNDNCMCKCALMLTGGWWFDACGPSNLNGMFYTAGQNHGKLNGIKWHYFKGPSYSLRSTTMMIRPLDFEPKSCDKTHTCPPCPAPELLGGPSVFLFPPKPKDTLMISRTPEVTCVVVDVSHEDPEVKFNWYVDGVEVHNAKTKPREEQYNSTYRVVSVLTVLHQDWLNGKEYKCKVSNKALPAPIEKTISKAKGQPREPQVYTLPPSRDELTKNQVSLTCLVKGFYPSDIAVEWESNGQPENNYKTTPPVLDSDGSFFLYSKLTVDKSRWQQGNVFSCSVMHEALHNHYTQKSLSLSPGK

Row | Binder | binding result (重组蛋白hANG2-His) | binding result (hANG1-Fc) | IC50 (生物素标记的hANG2-Fc蛋白)
1 | B1 | binds | no binding | 0.226 nM and 0.44 nM
2 | B2 | binds | no binding | 
